Values joined by “and” are separate entries in the source; they are usually repeats but may differ in a detail not shown here. Equal values may be shown once.
T1: TolA (residues 34–421) (Escherichia coli K12, UniProt P19934 34-421, RED-tris-NTA dye on the His tag)
T1 construct: TolA of Escherichia coli K12, residues 34-421, amplified from genomic DNA into a modified pET28a; also called soluble TolA; TolA with the periplasmic loop TolA_β; source: E. coli BL21(DE3), purified (Ni-NTA column, desalting); not shown: 8x His, C-terminal, kept
T1 sequence (looked up): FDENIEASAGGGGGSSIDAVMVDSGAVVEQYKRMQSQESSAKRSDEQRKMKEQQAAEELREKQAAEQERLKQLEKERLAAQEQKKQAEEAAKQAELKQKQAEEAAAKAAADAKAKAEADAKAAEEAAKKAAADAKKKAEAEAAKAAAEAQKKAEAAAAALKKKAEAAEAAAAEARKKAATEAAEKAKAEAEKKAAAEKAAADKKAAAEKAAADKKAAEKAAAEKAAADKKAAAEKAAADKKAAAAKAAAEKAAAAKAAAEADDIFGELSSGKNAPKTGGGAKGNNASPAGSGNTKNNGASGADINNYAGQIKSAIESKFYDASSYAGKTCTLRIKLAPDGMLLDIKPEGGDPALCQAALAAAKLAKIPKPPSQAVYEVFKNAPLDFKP

T2: TolA (residues 58–421) (Escherichia coli K12, UniProt P19934 58-421, RED-tris-NTA dye on the His tag)
T2 construct: TolA of Escherichia coli K12, residues 58-421, amplified from genomic DNA into a modified pET28a; also called soluble TolA without TolA_β; source: E. coli BL21(DE3), purified (Ni-NTA column, desalting); not shown: 8x His, C-terminal, kept
T2 sequence (looked up): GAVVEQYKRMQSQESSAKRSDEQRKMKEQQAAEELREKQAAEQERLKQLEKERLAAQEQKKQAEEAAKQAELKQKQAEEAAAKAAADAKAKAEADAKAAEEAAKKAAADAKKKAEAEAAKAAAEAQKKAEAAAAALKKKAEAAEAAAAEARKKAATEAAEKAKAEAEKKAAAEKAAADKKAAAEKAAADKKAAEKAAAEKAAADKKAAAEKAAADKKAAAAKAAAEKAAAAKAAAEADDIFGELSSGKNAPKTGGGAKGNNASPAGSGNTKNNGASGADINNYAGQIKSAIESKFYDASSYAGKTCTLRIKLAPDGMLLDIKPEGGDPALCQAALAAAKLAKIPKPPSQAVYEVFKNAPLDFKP

B1: TolR (residues 60–133) (domain or fragment, Escherichia coli K12, UniProt P0ABV6 60-133, looked up)
chain: DNPPVIVEVSGIGQYTVVVEKDRLERLPPEQVVAEVSSRFKANPKTVFLIGGAKDVPYDEIIKALNLLHSAGVK
notes: TolR of Escherichia coli K12, residues 60-133 of the periplasmic domain, amplified from genomic DNA into a modified pET28a; also called TolR^60–133; TolR lacking both β1/α1 and β6; source: E. coli BL21(DE3), purified (Strep-Tactin column, desalting)
B2: TolQ (natural protein, Escherichia coli (strain K12))
chain: MTDMNILDLFLKASLLVKLIMLILIGFSIASWAIIIQRTRILNAAAREAEAFEDKFWSGIELSRLYQESQGKRDNLTGSEQIFYSGFKEFVRLHRANSHAPEAVVEGASRAMRISMNRELENLETHIPFLGTVGSISPYIGLFGTVWGIMHAFIALGAVKQATLQMVAPGIAEALIATAIGLFAAIPAVMAYNRLNQRVNKLELNYDNFMEEFTAILHRQAFTVSESNKG
notes: TolQ of Escherichia coli strain K12; the operon encoding TolQRA was cloned into pTRC99a; no tag on TolQ in this construct; The whole tolQRA operon was cloned, so the whole gene is implied; a minor hexameric class (six TolQ subunits) was also seen; also called TolQ1; TolQ2; source: E. coli C43 (DE3), co-expressed from pTRC99a-TolQR(Strep)A(His), purified as complex (HisTrap + Superdex 200, …)

Assays:
TolA (residues 34–421) = biological target: T1, TolA (residues 34–421); test: MST; TolA labelled with RED-tris-NTA dye, fixed at 50 nM; TolR titrated in 16 points from 150 μM to 4.58 nM; 20 mM HEPES pH 7.8, 150 mM NaCl; 25 °C; Monolith NT.115; conditions: both partners purified
TolA (residues 58–421) = biological target: T2, TolA (residues 58–421); test: as above; conditions: both partners purified
[1] = biological target: the molecule itself; test: cryo-EM structure; TolQRA co-expressed, purified by the His tag of TolA in DDM/CHS then LMNG/CHS, reconstituted in MSP1D1 nanodiscs with E. coli total lipid extract; 20 mM Tris pH 7.8, 150 mM NaCl; classes with one, two or three TolA

Binder | binding result (TolA (residues 34–421)) | binding result (TolA (residues 58–421)) | stoichiometry N [1]
B1 | binds | binds | 
B2 |  |  | 5 and 6

From publication PMC12583513, “Deciphering the molecular mechanism of the bacterial division motor TolQRA” (Cell Discovery, 2025)
